Read-outs that look alike come from different tables or passages of the source.

For one test, the target named is mini peptide GGpYGG. Kind of test: fluorescence polarisation.
The target in the next test is VCP-pTyr805-tail7. Kind of test: FP.
Another test deals with Shc1-pTyr317. Kind of test: FP.
The target of a further test is Shc1-pTyr239. Kind of test: FP.
Test [1] concerns the target DnaJ-A1-pTyr381 ∆N peptide (human) (UniProt P31689). Kind of test: FP.
Another test concerns the target MidT-pTyr324. Kind of test: FP. Conditions: natural protein.
In test [2] the target is DnaJ-A1-pTyr381 ∆C peptide (human) (UniProt P31689). Kind of test: FP.
For another test, the target named is EGFR-pTyr954. Kind of test: FP.
The target of another test is EGFR-pTyr1086. Kind of test: FP.

For orientation: Kd means the constant that tells how readily two partners part at equilibrium. Take L. longbeachae LeSH (natural protein): the Kd with mini peptide GGpYGG was 3.6 µM.

In the case of L. dumoffii LUSH (natural protein), in the test with mini peptide GGpYGG, the Kd came to 0.38 µM.

For the substance L. dumoffii LeSH1a, the dissociation constant (Kd) (with VCP-pTyr805-tail7 (natural protein); with Shc1-pTyr317 (natural protein); in the test with Shc1-pTyr239 (natural protein); in test [1] (natural protein); with MidT-pTyr324; in test [2] (natural protein)) was more than 50 µM in each case.

Turning to L. anisa LeSH1b (Lani_2495), the Kd (with VCP-pTyr805-tail7 (natural protein); in the test with Shc1-pTyr317 (natural protein); with Shc1-pTyr239 (natural protein); in test [1] (natural protein); in test [2] (natural protein)) was more than 50 µM each time.

With L. pneumophila LeSH2, the Kd with Shc1-pTyr317 turned out to be 8.77 µM; in the test with Shc1-pTyr239 it was 3.66 µM; with EGFR-pTyr954 it was 44.6 µM; in the test with EGFR-pTyr1086, 31.4 µM; in test [2], 1.09 µM.

On to L. anisa LeSH2b (Lani_WP_019234638), for which the Kd is 31.2 µM in the test with VCP-pTyr805-tail7 (natural protein); 40.6 µM in the test with Shc1-pTyr317 (natural protein); 38.1 µM with Shc1-pTyr239 (natural protein); more than 50 µM in the test with EGFR-pTyr954 (natural protein); 22.6 µM in test [1] (natural protein); more than 50 µM with EGFR-pTyr1086 (natural protein). In test [2] (natural protein), the dissociation constant (Kd) stood at 16.5 µM.

For the substance L. dumoffii LeSH2, the Kd with VCP-pTyr805-tail7 (natural protein) was 9.1 µM; in the test with Shc1-pTyr317 (natural protein) it was 9.35 µM; with Shc1-pTyr239 (natural protein) it was 2.46 µM; with EGFR-pTyr1086 (natural protein), 14.7 µM.

In the test with mini peptide GGpYGG, L. dumoffii LeSH2 (natural protein) displayed an equilibrium dissociation constant (Kd) of 14.7 µM.

As to L. waltersii LeSH5 tandem SH2, the Kd with Shc1-pTyr317 amounted to 13.8 µM; with Shc1-pTyr239 it was 6.17 µM; in [1], 15 µM; in the test with EGFR-pTyr1086, 33.5 µM; in test [2] it was 28.7 µM.

In the case of L. pneumophila DoSH C-SH2, the results for the Kd (in [1]; with EGFR-pTyr1086) were 31.9 µM and 12.5 µM, respectively.

Src SH2 TrM (superbinder) yielded a Kd in the test with VCP-pTyr805-tail7 of 1.2 µM.

L. anisa LeSH2a (Lani_0711): the results for the Kd with VCP-pTyr805-tail7 (natural protein), in the test with Shc1-pTyr239 (natural protein) and with EGFR-pTyr954 (natural protein) were 2.53 µM, 3.05 µM and 7.98 µM, respectively.

(Values after PMC6208348.)
